# PMC12102759 (2025)
# B1: RNF115 peptide 67-82 (E3 ubiquitin-protein ligase RNF115), 16-mer library wild type / MDM2 SWIB (MDM2 SWIB/MDM2 domain, residues 17-125) (parent complex)
# chain 1: TTTHFAELWGHLDHTM
# chain 2: SQIPASEQETLVRPKPLLLKLLKSVGAQKDTYTMKEVLFYLGQYIMTKRLYDEKQQHIVYCSNDLLGDLFGVPSFSVKEHRKIYTMIYRNLVVVNQQESSDSGTSVSEN
# B2: PEX5 peptide 110-125 (Peroxisomal targeting signal 1 receptor), 16-mer library wild type / PEX14 Pex14 (PEX14 PEX14, residues 16-84) (parent complex)
# chain 1: ADLALSENWAQEFLAA
# chain 2: TPGSENVLPREPLIATAVKFLQNSRVRQSPLATRRAFLKKKGLTDEEIDMAFQQSGTAADEPSSLGPAT
# Variants of: B1
# Assay: proteomic peptide phage display deep mutational scan (ProP-PD DMS): M13 P8 16-mer library selected against immobilised GST-tagged bait for four days (rounds), NGS of the eluted pools per day and pseudo-replica; bait immobilised on MaxiSorp plates (10 µg), library pre-cleared on GST, 2 h binding at 4 °C, five washes; one round per day, days 1-4; value from days 2 and 3
row,Variant,screen value
1,chain 1 A6S,"0.000754 average fractional NGS count over selection days 2 and 3 (reads of this peptide / all reads for the bait, averaged over …"
2,chain 1 A6Q,"0.000266 average fractional NGS count over selection days 2 and 3 (reads of this peptide / all reads for the bait, averaged over …"
3,chain 1 F5Y,"0.0001 average fractional NGS count over selection days 2 and 3 (reads of this peptide / all reads for the bait, averaged over …"
4,chain 1 F5S,"0.000118 average fractional NGS count over selection days 2 and 3 (reads of this peptide / all reads for the bait, averaged over …"
5,chain 1 F5Q,"0.00091 average fractional NGS count over selection days 2 and 3 (reads of this peptide / all reads for the bait, averaged over …"
6,chain 1 T2D,"0.00164 average fractional NGS count over selection days 2 and 3 (reads of this peptide / all reads for the bait, averaged over …"
7,chain 1 T2M,"0.000321 average fractional NGS count over selection days 2 and 3 (reads of this peptide / all reads for the bait, averaged over …"
8,chain 1 T2L,"0.000556 average fractional NGS count over selection days 2 and 3 (reads of this peptide / all reads for the bait, averaged over …"
9,chain 1 H14S,"0.00046 average fractional NGS count over selection days 2 and 3 (reads of this peptide / all reads for the bait, averaged over …"
10,chain 1 H14E,"9.03e-05 average fractional NGS count over selection days 2 and 3 (reads of this peptide / all reads for the bait, averaged over …"
11,chain 1 H14A,"0.00138 average fractional NGS count over selection days 2 and 3 (reads of this peptide / all reads for the bait, averaged over …"
12,chain 1 H14Y,"0.00813 average fractional NGS count over selection days 2 and 3 (reads of this peptide / all reads for the bait, averaged over …"
13,chain 1 G10L,"0.000164 average fractional NGS count over selection days 2 and 3 (reads of this peptide / all reads for the bait, averaged over …"
14,chain 1 G10A,"0.00678 average fractional NGS count over selection days 2 and 3 (reads of this peptide / all reads for the bait, averaged over …"
15,chain 1 G10M,"0.00144 average fractional NGS count over selection days 2 and 3 (reads of this peptide / all reads for the bait, averaged over …"
16,chain 1 D13P,"0.00074 average fractional NGS count over selection days 2 and 3 (reads of this peptide / all reads for the bait, averaged over …"
17,chain 1 D13Q,"0.00218 average fractional NGS count over selection days 2 and 3 (reads of this peptide / all reads for the bait, averaged over …"
18,chain 1 D13W,"0.000615 average fractional NGS count over selection days 2 and 3 (reads of this peptide / all reads for the bait, averaged over …"
19,chain 1 D13V,"0.0143 average fractional NGS count over selection days 2 and 3 (reads of this peptide / all reads for the bait, averaged over …"
20,chain 1 D13F,"0.00274 average fractional NGS count over selection days 2 and 3 (reads of this peptide / all reads for the bait, averaged over …"
21,chain 1 D13S,"0.00426 average fractional NGS count over selection days 2 and 3 (reads of this peptide / all reads for the bait, averaged over …"
22,chain 1 D13M,"0.00561 average fractional NGS count over selection days 2 and 3 (reads of this peptide / all reads for the bait, averaged over …"
23,chain 1 D13G,"0.00549 average fractional NGS count over selection days 2 and 3 (reads of this peptide / all reads for the bait, averaged over …"
24,chain 1 D13T,"0.0095 average fractional NGS count over selection days 2 and 3 (reads of this peptide / all reads for the bait, averaged over …"
25,chain 1 D13R,"0.000392 average fractional NGS count over selection days 2 and 3 (reads of this peptide / all reads for the bait, averaged over …"

# Variants of: B2
# Assay: as above
row,Variant,screen value
1,chain 1 S6H,"0.00186 average fractional NGS count over selection days 2 and 3 (reads of this peptide / all reads for the bait, averaged over …"
2,chain 1 S6F,"0.00174 average fractional NGS count over selection days 2 and 3 (reads of this peptide / all reads for the bait, averaged over …"
3,chain 1 Q11H,"0.00141 average fractional NGS count over selection days 2 and 3 (reads of this peptide / all reads for the bait, averaged over …"
4,chain 1 E7P,"0.00244 average fractional NGS count over selection days 2 and 3 (reads of this peptide / all reads for the bait, averaged over …"
5,chain 1 E7F,"0.000467 average fractional NGS count over selection days 2 and 3 (reads of this peptide / all reads for the bait, averaged over …"
6,chain 1 A10W,"0.00181 average fractional NGS count over selection days 2 and 3 (reads of this peptide / all reads for the bait, averaged over …"
7,chain 1 A10Y,"0.0104 average fractional NGS count over selection days 2 and 3 (reads of this peptide / all reads for the bait, averaged over …"
8,chain 1 D2P,"0.00139 average fractional NGS count over selection days 2 and 3 (reads of this peptide / all reads for the bait, averaged over …"
9,chain 1 D2Y,"0.000446 average fractional NGS count over selection days 2 and 3 (reads of this peptide / all reads for the bait, averaged over …"
10,chain 1 L5H,"0.00347 average fractional NGS count over selection days 2 and 3 (reads of this peptide / all reads for the bait, averaged over …"
11,chain 1 E12W,"0.0033 average fractional NGS count over selection days 2 and 3 (reads of this peptide / all reads for the bait, averaged over …"
12,chain 1 L3A,"0.00097 average fractional NGS count over selection days 2 and 3 (reads of this peptide / all reads for the bait, averaged over …"
13,chain 1 L14K,"0.000342 average fractional NGS count over selection days 2 and 3 (reads of this peptide / all reads for the bait, averaged over …"
